Results reported in patent publication US20130101549A1 (Biogen, published 2013).

Experiments:
human HER2-Fc [1] = molecular target: T1, human HER2-Fc (human, UniProt P04626 23-652); assay: ELISA on coated huHER2-Fc, HRP anti-human kappa; the number is C of the printed 4-P fit (A -0.059, B 0.832, D 1.098, R^2 0.998); x axis: Fab equivalent concentration
T1 construct: Bought from R&D Systems: homodimeric fusion of the HER2 extracellular domain and human IgG1 Fc; also called human ErbB2-Fc; rhErbB2-Fc; not shown: Fc fragment of human IgG1

human LTβR-Ig [2] = molecular target: T2, human LTβR-Ig (human, UniProt P36941 31-227); assay: ELISA on coated LTbR-Ig
T2 construct: Expressed and purified in house; also called hLTbR-Ig; human LTBR-Ig
Experimental: (§1) Human and murine ErbB2-Fc were obtained from R&D Systems. Wells of 96-well plates were coated with 2 ug/ml or 0.2 ug/ml of human or murine HER2-Fc by incubation overnight at 4-8° C. with either of these six proteins (80 ul/well of a 0.2 or 2 ug/ml solution in PBS). Wells were emptied, filled completely with a solution of PBS with 1% BSA (blocking buffer) and incubated at room temperature for 1 hour. Wells were emptied, washed twice PBS containing 0.05% Tween 20 (PBST) and filled with the samples (80 ul/well of 3× dilution series of the standard and supernatants in blocking buffer) prepared in another 96-well plate. After a 2-hour incubation at room temperature, the wells were emptied, washed three times with PBST and filled with a solution of HRP-conjugated goat pAbs anti-human kappa chain (80 ul/well of a 2000-fold dilution in blocking buffer). After 1-hour incubation, the wells were emptied and filled with a solution of HRP substrate prepared freshly. The color was left to develop for 3 minutes and was stopped by addition of an equal volume of 1N H₂SO₄. Absorbance was measured at 450 nm using a Plate Reader (SpectraMax, Molecular Devices). The data was processed and graphs were created using SoftMax Pro software.
Human and murine LTBR-Ig were expressed and purified in house.

human HER2-Fc [3] = molecular target: T1, human HER2-Fc; assay: Octet biolayer interferometry, receptor-Fc on anti-human Fc biosensor, culture supernatant
Experimental: (§2) Anti-human Fc-specific biosensors (Fortebio SKU 18-0001) were hydrated in OB (1×PBS supplemented with 1 mg/ml BSA, 0.05% NaN₃, and 0.02% TWEEN 20) for at least five minutes prior to assays. For each assay, the respective receptor—Fc fusion was diluted to 10 μg/ml in OB and allowed to bind to the biosensors for five minutes. The sensors were then incubated in the indicated culture supernatant for an additional five minutes, and subsequently transferred to fresh wells […].

human HVEM-Ig [4] = molecular target: T3, human HVEM-Ig (human, UniProt Q92956 39-202); assay: as above
T3 construct: Expressed and purified in house; also called HVEM-Fc; Herpes virus entry mediator-Ig
T3 sequence (looked up): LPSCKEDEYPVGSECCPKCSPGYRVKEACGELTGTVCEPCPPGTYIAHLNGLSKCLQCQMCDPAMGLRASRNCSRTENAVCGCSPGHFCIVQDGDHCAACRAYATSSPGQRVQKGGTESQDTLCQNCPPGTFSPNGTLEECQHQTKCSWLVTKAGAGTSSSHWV
Experimental: as §2

human LTβR-Ig [5] = molecular target: T2, human LTβR-Ig; assay: as above
Experimental: as §2

human HVEM-Ig [6] = molecular target: T3, human HVEM-Ig; assay: ELISA on coated HVEM-Ig
Experimental: as §1
Human and murine HVEM-Ig were expressed and purified in house.

human HVEM-Ig [7] = molecular target: T3, human HVEM-Ig; assay: FACS (HVEM column of Table 2; format not told there)
human LTβR-Ig [8] = molecular target: T2, human LTβR-Ig; assay: FACS (LTbR column of Table 2; format not told there)
[9] = molecular target: human LTβR on tumor cells (human, UniProt P36941 31-435); assay: cell-based or functional assay
murine HER2-Fc [10] = molecular target: T4, murine HER2-Fc (mouse; human, UniProt P70424 23-653); assay: ELISA on coated muHER2-Fc, HRP anti-human kappa; the number is C of the printed 4-P fit (A 0.005, B 1.068, D 0.84, R^2 0.999); x axis: Fab equivalent concentration
T4 construct: extracellular domain; Bought from R&D Systems; also called murine ErbB2-Fc; not shown: Fc fragment of human IgG1

[11] = molecular target: T5, human HER2/ErbB2 on cells (human, UniProt P04626 23-1255); assay: FACS on HER2-expressing cells
T5 construct: whole, on cells; also called hHER2/ErbB2; wild type HER2/ErbB

human HER2-Fc [12] = molecular target: T1, human HER2-Fc; assay: ELISA on coated HER2-Fc
Experimental: as §1

human LTBR-mIgG fusion = molecular target: T6, human LTBR-mIgG fusion; assay: sandwich ELISA after incubation at 200 ng/ml in human serum (cold or 37°C overnight): HER2-Fc on the plate, human LTBR-mIgG, HRP anti-mouse IgG; the signal needs both bindings at once
T6 construct: kept apart from m25 (human Fc); not shown: exact end of the LTBR part
Experimental: An ELISA assay was developed to detect LIGHT-Ab fusions after incubation with human sera. Briefly, 200 ng/mL of LIGHT-Ab fusions were incubated overnight in human serum at 37° C. The serum was assayed in sandwich ELISA as follows. HER2-Fc was immobilized to a solid surface, and was used to capture the LIGHT-Ab fusions. The serum incubated fusion proteins were added to the solid surface. Detection was effected using a human LTBR-mIgG fusion to bind to the LIGHT moiety of the fusion. Horseradish peroxidase (HRP) labeled anti-mouse IgG was used to detect bound LIGHT-Ab fusions.

murine HER2-Fc [13] = molecular target: T4, murine HER2-Fc; assay: ELISA on coated muHER2-Fc, HRP anti-human kappa; the number is C of the printed 4-P fit (A 0.008, B 1.027, D 0.896, R^2 1); x axis: Fab equivalent concentration
Experimental: as §1, with “Wells” for “Human and murine ErbB2-Fc were obtained from R&D Systems. Wells”, “coated” for “coated with 2 ug/ml or 0.2 ug/ml of human or murine HER2-Fc”, “goat antibodies against human kappa chain” for “either of these six proteins”, “5” for “0.2 or 2”
Human and murine HER2-Fc (homodimeric fusion proteins consisting of the extracellular domain of HER2 and the Fc fragment of human IgG1) were obtained from R&D Systems. […]

human HER2-Fc [14] = molecular target: T1, human HER2-Fc; assay: ELISA on coated huHER2-Fc, HRP anti-human kappa; the number is C of the printed 4-P fit (A 0.006, B 1.142, D 0.89, R^2 1); x axis: Fab equivalent concentration

Chain of human LTβR on tumor cells (P36941 31-435): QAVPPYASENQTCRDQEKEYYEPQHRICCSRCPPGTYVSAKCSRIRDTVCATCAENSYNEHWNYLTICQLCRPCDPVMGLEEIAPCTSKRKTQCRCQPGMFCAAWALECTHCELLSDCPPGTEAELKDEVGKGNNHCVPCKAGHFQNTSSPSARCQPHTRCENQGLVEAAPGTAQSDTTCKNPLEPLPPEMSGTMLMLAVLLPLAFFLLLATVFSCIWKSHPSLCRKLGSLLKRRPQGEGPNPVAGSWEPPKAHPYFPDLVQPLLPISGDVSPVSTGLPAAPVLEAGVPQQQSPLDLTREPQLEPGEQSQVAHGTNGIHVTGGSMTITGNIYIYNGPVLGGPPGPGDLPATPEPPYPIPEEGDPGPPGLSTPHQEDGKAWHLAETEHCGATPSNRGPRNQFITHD
T2 sequence (P36941 31-227): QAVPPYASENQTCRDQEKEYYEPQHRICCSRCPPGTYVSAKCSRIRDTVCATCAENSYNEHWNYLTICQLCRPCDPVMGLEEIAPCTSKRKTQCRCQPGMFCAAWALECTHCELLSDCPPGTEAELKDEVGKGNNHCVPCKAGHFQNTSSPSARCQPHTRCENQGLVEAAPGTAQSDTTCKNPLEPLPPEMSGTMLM
T4 sequence (P70424 23-653): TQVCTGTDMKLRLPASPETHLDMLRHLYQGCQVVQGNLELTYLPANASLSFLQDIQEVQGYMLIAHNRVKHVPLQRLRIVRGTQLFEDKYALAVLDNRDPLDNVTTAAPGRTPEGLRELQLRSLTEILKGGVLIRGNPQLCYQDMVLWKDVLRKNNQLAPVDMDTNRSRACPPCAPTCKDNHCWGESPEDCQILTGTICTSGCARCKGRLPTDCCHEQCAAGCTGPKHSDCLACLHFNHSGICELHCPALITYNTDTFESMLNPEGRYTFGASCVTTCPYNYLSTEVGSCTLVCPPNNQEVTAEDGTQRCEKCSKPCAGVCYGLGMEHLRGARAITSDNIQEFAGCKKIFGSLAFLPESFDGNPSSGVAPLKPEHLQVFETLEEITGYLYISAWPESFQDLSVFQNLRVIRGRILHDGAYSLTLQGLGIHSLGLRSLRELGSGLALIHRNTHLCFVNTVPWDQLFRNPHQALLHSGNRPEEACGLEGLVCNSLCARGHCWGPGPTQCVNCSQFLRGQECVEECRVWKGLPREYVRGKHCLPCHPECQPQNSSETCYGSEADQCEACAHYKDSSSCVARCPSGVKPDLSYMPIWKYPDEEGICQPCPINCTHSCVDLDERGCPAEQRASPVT
T6 sequence (chain, as listed by the source limits assumed): as the sequence (P36941 31-227) above

B1: 71F10 Fab-hLIGHT fusion with the delta 4 linker (BIIB71F10-130) (other)
heavy: EVQLLESGGGLVQPGGSLRLSCAASGFTFSSYGMVWVRQAPGKGLEWVSSISSSGGLTWYADSVKGRFTISRDNSKNTLYLQMNSLRAEDTAVYYCASPPGIAVARDYWGQGTLVTVSSASTKGPSVFPLAPSSKSTSGGTAALGCLVKDYFPEPVTVSWNSGALTSGVHTFPAVLQSSGLYSLSSVVTVPSSSLGTQTYICNVNHKPSNTKVDKKVEPKSCDKLHWRLGEMVTRLPDGPAGSWQERRSHEVNPAAHLTGANSSLTGSGGPLLWETQLGLAFLRGLSYHDGALVVTKAGYYYIYSKVQLGGVGCPLGLASTITHGLYKRTPRYPEELELLVSQQSPCGRATSSSRVWWDSSFLGGVVHLEAGEEVVVRVLDERLVRLRDGTRSYFGAFMV
light: DIQMTQSPSSLSASVGDRVTITCRASQGISNYLAWYQQKPGKVPKLLIYAASTLQSGVPSRFSGSGSGTDFTLTISSLQPEDVATYYCQKYNSALLTFGGGTKVEIKRTVAAPSVFIFPPSDEQLKSGTASVVCLLNNFYPREAKVQWKVDNALQSGNSQESVTEQDSKDSTYSLSSTLTLSKADYEKHKVYACEVTHQGLSSPVTKSFNRGEC
notes: Fab heavy chain - linker - human LIGHT extracellular part; assembles as a trimer of Fab-LIGHT units; also called pBIIB71F10-130; LIGHT fusion #130
EC50 (human HER2-Fc [1]): 0.00955 µg/mL
EC50 (human LTβR-Ig [2]): 10 pM
koff (human HER2-Fc [3]): 0.000112 s⁻¹
koff (human HVEM-Ig [4]): 0.000122 s⁻¹
koff (human LTβR-Ig [5]): 0.000168 s⁻¹
EC50 (human HVEM-Ig [6]): 10 pM
EC50 (human HVEM-Ig [7]): 500 pM
EC50 (human LTβR-Ig [8]): 200 pM
fold difference of gene expression, treated/untreated HT29 cells (qRT-PCR): CCL2 (MCP-1) [9]: 1050 fold
fold difference of gene expression, treated/untreated HT29 cells (qRT-PCR): CCL5 (RANTES) [9]: 1220 fold
fold difference of gene expression, treated/untreated HT29 cells (qRT-PCR): CCL7 (MCP-3) [9]: -527 fold
fold difference of gene expression, treated/untreated HT29 cells (qRT-PCR): CCL21 [9]: 546 fold
fold difference of gene expression, treated/untreated HT29 cells (qRT-PCR): CCR4 [9]: 1650 fold
fold difference of gene expression, treated/untreated HT29 cells (qRT-PCR): CXCL2 [9]: 1130 fold
fold difference of gene expression, treated/untreated HT29 cells (qRT-PCR): CXCL3 [9]: 1090 fold
fold difference of gene expression, treated/untreated HT29 cells (qRT-PCR): CXCL5 (ENA-78/LIX) [9]: 1810 fold
fold difference of gene expression, treated/untreated HT29 cells (qRT-PCR): CXCL9 [9]: 675 fold
fold difference of gene expression, treated/untreated HT29 cells (qRT-PCR): CXCL10 (IP-10) [9]: 5270 fold
fold difference of gene expression, treated/untreated HT29 cells (qRT-PCR): CXCL11 (I-TAC/IP9) [9]: 1730 fold
fold difference of gene expression, treated/untreated HT29 cells (qRT-PCR): IFNA2 [9]: 193 fold
fold difference of gene expression, treated/untreated HT29 cells (qRT-PCR): IL5 [9]: 940 fold
fold difference of gene expression, treated/untreated HT29 cells (qRT-PCR): IL8 [9]: 373 fold
fold difference of gene expression, treated/untreated HT29 cells (qRT-PCR): IL10RA [9]: 3440 fold
fold difference of gene expression, treated/untreated HT29 cells (qRT-PCR): LTB [9]: 2910 fold
fold difference of gene expression, treated/untreated HT29 cells (qRT-PCR): TNF [9]: 7370 fold
EC50 (murine HER2-Fc [10]): 0.0114 µg/mL
EC50 [11]: 500 pM
EC50 (human HER2-Fc [12]): 50 pM

B2: 71F10 Fab-hLIGHT fusion with the G4S delta 4 linker (BIIB71F10-131) (other)
heavy: EVQLLESGGGLVQPGGSLRLSCAASGFTFSSYGMVWVRQAPGKGLEWVSSISSSGGLTWYADSVKGRFTISRDNSKNTLYLQMNSLRAEDTAVYYCASPPGIAVARDYWGQGTLVTVSSASTKGPSVFPLAPSSKSTSGGTAALGCLVKDYFPEPVTVSWNSGALTSGVHTFPAVLQSSGLYSLSSVVTVPSSSLGTQTYICNVNHKPSNTKVDKKVEPKSCDKGGGGSLHWRLGEMVTRLPDGPAGSWQERRSHEVNPAAHLTGANSSLTGSGGPLLWETQLGLAFLRGLSYHDGALVVTKAGYYYIYSKVQLGGVGCPLGLASTITHGLYKRTPRYPEELELLVSQQSPCGRATSSSRVWWDSSFLGGVVHLEAGEEVVVRVLDERLVRLRDGTRSYFGAFMV
light: DIQMTQSPSSLSASVGDRVTITCRASQGISNYLAWYQQKPGKVPKLLIYAASTLQSGVPSRFSGSGSGTDFTLTISSLQPEDVATYYCQKYNSALLTFGGGTKVEIKRTVAAPSVFIFPPSDEQLKSGTASVVCLLNNFYPREAKVQWKVDNALQSGNSQESVTEQDSKDSTYSLSSTLTLSKADYEKHKVYACEVTHQGLSSPVTKSFNRGEC
notes: Trimer of Fab-LIGHT units; also called pBIIB71F10-131
EC50 (human LTβR-Ig [2]): 10 pM
koff (human HER2-Fc [3]): 0.000307 s⁻¹
koff (human LTβR-Ig [5]): 0.000183 s⁻¹
EC50 (human HVEM-Ig [6]): 10 pM
EC50 (human HVEM-Ig [7]): 500 pM
binding result (human LTBR-mIgG fusion): binds
EC50 (murine HER2-Fc [13]): 0.0139 µg/mL
EC50 (human LTβR-Ig [8]): 200 pM
EC50 (human HER2-Fc [14]): 0.00608 µg/mL
EC50 [11]: 500 pM
EC50 (human HER2-Fc [12]): 50 pM
